{"source": "patent US20080311130A1", "about": "(IMMUNE DISEASE INSTITUTE, published 2008)", "binders": {"B1": {"name": "αL I domain clone m10b (E293G), yeast-displayed (receptor, not shown: large carriers; small tags and cut ends)", "chain": "NVDLVFLFDGSMSLQPDEFQKILDFMKDVMKKLSNTSYQFAAVQFSTSYKTEFDFSDYVKWKDPDALLKHVKHMLLLTNTFGAINYVATEVFREELGARPDATKVLIIITDGEATDSGNIDAAKDIIRYIIGIGKHFQTKESQETLHKFASKPASEFVKILDTFGKLKDLFTELQKKIYVIEGTSKQDLT"}, "B2": {"name": "αL I domain clone f1 (L289A), yeast-displayed (receptor, not shown: large carriers; small tags and cut ends)", "chain": "B1 chain with L161A, G165E"}, "B3": {"name": "soluble αL I domain mutant F292G, Asn-129 to Tyr-307 (receptor)", "chain": "NVDLVFLFDGSMSLQPDEFQKILDFMKDVMKKLSNTSYQFAAVQFSTSYKTEFDFSDYVKWKDPDALLKHVKHMLLLTNTFGAINYVATEVFREELGARPDATKVLIIITDGEATDSGNIDAAKDIIRYIIGIGKHFQTKESQETLHKFASKPASEFVKILDTGEKLKDLFTELQKKIY"}, "B4": {"name": "soluble αL I domain double mutant F265S/F292G, Asn-129 to Tyr-307 (receptor)", "chain": "B3 chain with F137S"}, "B5": {"name": "soluble αL I domain mutant F265S, Asn-129 to Tyr-307 (receptor)", "chain": "B3 chain with F137S, G164F"}, "B6": {"name": "soluble αL I domain mutant F292A, Asn-129 to Tyr-307 (receptor)", "chain": "B3 chain with G164A"}, "B7": {"name": "αL I domain clone m12 (I150T, G246V, F299L, I309T), yeast-displayed (receptor)", "chain": "B1 chain with I22T, G118V, G165E, F171L, I181T", "notes": "yeast surface display; not shown: Aga2, linker and hemagglutinin tag of pCTCON; c-myc tag"}, "B8": {"name": "αL I domain clone m12c (I309T), yeast-displayed (receptor)", "chain": "B1 chain with G165E, I181T", "notes": "as for B7"}, "B9": {"name": "αL I domain clone m13 (F265S), yeast-displayed (receptor)", "chain": "B1 chain with F137S, G165E", "notes": "as for B7"}, "B10": {"name": "αL I domain clone m14 (I288N), yeast-displayed (receptor)", "chain": "B1 chain with I160N, G165E", "notes": "as for B7"}, "B11": {"name": "αL I domain clone m15 (F277L, I288T), yeast-displayed (receptor)", "chain": "B1 chain with F149L, I160T, G165E", "notes": "as for B7"}, "B12": {"name": "αL I domain clone m15a (F277L), yeast-displayed (receptor)", "chain": "B1 chain with F149L, G165E", "notes": "as for B7"}}, "key": {"[1]": {"target": "ICAM-1-Fcγ (ICAM-1 residues of 1-480 fused to the Fc of human IgG, R&D Systems) (human) (UniProt P05362)", "sequence (P05362 28-480 limits assumed)": "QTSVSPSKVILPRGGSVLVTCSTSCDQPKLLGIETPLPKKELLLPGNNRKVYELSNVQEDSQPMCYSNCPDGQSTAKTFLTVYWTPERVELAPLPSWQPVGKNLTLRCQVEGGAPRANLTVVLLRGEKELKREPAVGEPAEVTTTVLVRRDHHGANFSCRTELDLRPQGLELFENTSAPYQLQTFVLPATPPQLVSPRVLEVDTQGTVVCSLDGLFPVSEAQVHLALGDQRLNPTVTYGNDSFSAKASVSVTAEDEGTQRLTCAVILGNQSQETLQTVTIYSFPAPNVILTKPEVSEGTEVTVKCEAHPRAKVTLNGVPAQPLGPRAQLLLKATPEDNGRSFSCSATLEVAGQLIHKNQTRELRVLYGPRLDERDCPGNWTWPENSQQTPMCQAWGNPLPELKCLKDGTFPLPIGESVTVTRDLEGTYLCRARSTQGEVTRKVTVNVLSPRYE", "assay": "flow cytometry on yeast-displayed I domain, ICAM-1-Fcγ 10 µg/ml"}, "[2]": {"target": "T1, ICAM-1-Fcγ (ICAM-1 residues of 1-480 fused to the Fc of human IgG, R&D Systems) (human, UniProt P05362 28-480)", "T1 construct": "range 1-480; Bought (R&D Systems); also called ICAM-1-Fcγ chimera; not shown: Fc of human IgG", "T1 sequence (P05362 28-480 limits assumed, form in doubt)": "as the sequence (P05362 28-480 limits assumed) above", "assay": "SPR (Biacore 3000), I domain injected over ICAM-1-Fcγ-coupled CM5 chip, 10 mM MgCl2", "experimental": "(§1) Mutant I domains (F265S, F292A, F292G, F265S/F292G, and HA) with residues of Asn-129 to Tyr-307 were expressed in Escherichia coli BL21 (DE3) (Novagen), refolded, and purified as described previously⁶. ICAM-1-Fcγ-coupled or mock-coupled CM5 sensor chip as control was prepared using the amine coupling kit (BIAcore, Piscataway, N.J.), as described previously³³. Surface plasmon resonance was measured using Biacore 3000. I domains were injected over the chip in 20 mM Tris HCl, pH 8.0, 150 mM NaCl, 10 mM MgCl₂, at a flow rate of 10 μl/min at room temperature.\nSeveral of the most activating mutants were expressed in Escherichia coli and refolded in order to measure the kinetics of binding to ICAM-1 by surface plasmon resonance (FIG. 2). Data are shown in Table 2, and for comparison are shown kinetics measured for the wild-type and disulfide-bonded IA and HA mutants in a previous study⁶, and for the same disulfide-bonded HA mutant in the current study.\n(§2) The values shown in the table are mean ± SD from three independent measurements. The parameters of kₒₙ, koff, and Kd were calculated by fitting the 1:1 Langmuir binding model to the Biacore sensogram. The values were from the previous studies ⁶."}, "[3]": {"target": "T1, ICAM-1-Fcγ (ICAM-1 residues of 1-480 …)", "assay": "SPR (Biacore); wild-type value from a previous study"}, "[4]": {"target": "T1, ICAM-1-Fcγ (ICAM-1 residues of 1-480 …)", "assay": "SPR (Biacore)", "experimental": "Sensograms show the binding of the I domain mutants (F292A, F265S, F292G, and F265S/F292G) to ICAM-1-Fcγ-coated sensor chip. In all sensograms, the signals from the control surface, as described in Materials and Methods, were subtracted. I domain mutants were injected in a series of concentrations starting from 100 μM for F292A and 1 μM for F292G, F265S, and F265S/F292G, and the subsequent concentrations were by two-fold serial dilutions.\nas §1, §2"}, "[5]": {"target": "T1, ICAM-1-Fcγ (ICAM-1 residues of 1-480 …)", "assay": "cell-based or functional assay"}, "[6]": {"target": "T1, ICAM-1-Fcγ (ICAM-1 residues of 1-480 …)", "assay": "flow cytometry on yeast-displayed I domain, ICAM-1-Fcγ 10 µg/ml", "experimental": "Cells that were cultured only in SD-CAA or further induced in SG-CAA were harvested, washed with 100 μl of labeling buffer (PBS, 0.5% BSA, 10 mM MgCl₂), and then incubated with ligands at 10 μg/ml in 50 μl of the labeling buffer for 20 min with shaking at 30° C. in a 96-well V-bottom plate. Ligands used in this study were anti-c-myc antibody 9E10 (Santa Cruz Biotechnology, CA) and anti-hemagglutinin antibody 12CA5 (Roche Applied Science), αL I domain-specific antibodies TS1/22 and MEM83³², and ICAM-1-Fcγ (ICAM-1 residues of 1-480 fused to the Fc of human IgG, R&D Systems). After incubation with the primary ligands, cells were washed once in 100 μl of the labeling buffer and incubated with the fluorescence-conjugated secondary antibodies at 5 μg/ml in 50 μl of the labeling buffer for 20 min at 4° C. Finally, cells were washed once in 100 μl and suspended in 100 μl of the labeling buffer for flow cytometry (FACScan, BD Biosciences).\nA total of twenty-five yeast colonies were picked from SD-CAA plates from the libraries selected with ICAM-1-Fcγ. These clones were tested for binding of ICAM-1-Fcγ, and sequenced (Table 1). Of these, 15 had unique sequences and were designated as m1 to m15, and all bound ICAM-1 better than wild-type (Table 1). Five clones contained single mutations, and the remainder contained 2-5 mutations each (Table 1). From the clones containing multiple mutations, one to three residues were selected and independently tested as a single substitution (designated with a, b, or c suffix) or independently isolated from the ratchet residue library (see below)."}}, "note": "Residue numbers refer to the chain shown, from its start. Names and notes keep the numbering of the source.", "data": [{"binder": "B1", "values": [{"measurement": "ICAM-1 (% ASFI of HA)", "setting": "[1]", "value": "4 % ASFI of HA"}]}, {"binder": "B2", "values": [{"measurement": "ICAM-1 (% ASFI of HA)", "setting": "[1]", "value": "1 % ASFI of HA"}]}, {"binder": "B3", "values": [{"measurement": "Kd", "setting": "[2]", "value": 119, "unit": "nM"}, {"measurement": "koff", "setting": "[2]", "value": 0.0019, "unit": "s⁻¹"}, {"measurement": "kon", "setting": "[2]", "value": 16000, "unit": "M⁻¹ s⁻¹"}, {"measurement": "fold decrease in dissociation-rate (against wild type)", "setting": "[3]", "value": 1000, "unit": "fold"}, {"measurement": "fold increase in affinity (against wild type)", "setting": "[3]", "value": 10000, "unit": "fold"}, {"measurement": "fold higher affinity compared to the F292A mutant", "setting": "[4]", "value": 170, "unit": "fold"}, {"measurement": "fold slower dissociation rate than the F292A mutant", "setting": "[4]", "value": 100, "unit": "fold"}]}, {"binder": "B4", "values": [{"measurement": "Kd", "setting": "[2]", "value": 6, "unit": "nM"}, {"measurement": "koff", "setting": "[2]", "value": 0.00015, "unit": "s⁻¹"}, {"measurement": "kon", "setting": "[2]", "value": 25000, "unit": "M⁻¹ s⁻¹"}, {"measurement": "IC50 in blocking the adhesion of PMA activated lymphocytes to ICAM-1 coated surfaces", "setting": "[5]", "value": 350, "unit": "nM"}, {"measurement": "potency relative to the HA I domain in lymphocyte adhesion to ICAM-1, transmigration and homotypic aggregation", "setting": "[5]", "value": 10, "unit": "fold"}, {"measurement": "fold increase in affinity compared to the wild-type I domain", "setting": "[3]", "value": 200000, "unit": "fold"}, {"measurement": "fold decrease in dissociation rate compared to the F265S and F292G single mutants", "setting": "[4]", "value": 10, "unit": "fold"}, {"measurement": "fold higher binding affinity than the HA mutant", "setting": "[4]", "value": 20, "unit": "fold"}, {"measurement": "fold higher kon than the single mutants", "setting": "[4]", "value": 2, "unit": "fold"}, {"measurement": "fold slower dissociation rate than the HA I domain", "setting": "[4]", "value": "~100", "unit": "fold"}]}, {"binder": "B5", "values": [{"measurement": "Kd", "setting": "[2]", "value": 145, "unit": "nM"}, {"measurement": "koff", "setting": "[2]", "value": 0.0017, "unit": "s⁻¹"}, {"measurement": "kon", "setting": "[2]", "value": 11800, "unit": "M⁻¹ s⁻¹"}, {"measurement": "fold decrease in dissociation-rate (against wild type)", "setting": "[3]", "value": 1000, "unit": "fold"}, {"measurement": "fold increase in affinity (against wild type)", "setting": "[3]", "value": 10000, "unit": "fold"}, {"measurement": "fold slower dissociation rate than the F292A mutant", "setting": "[4]", "value": 100, "unit": "fold"}]}, {"binder": "B6", "values": [{"measurement": "Kd", "setting": "[2]", "value": 20000, "unit": "nM"}, {"measurement": "koff", "setting": "[2]", "value": 0.19, "unit": "s⁻¹"}, {"measurement": "kon", "setting": "[2]", "value": 9500, "unit": "M⁻¹ s⁻¹"}, {"measurement": "fold increase in affinity (against wild type)", "setting": "[3]", "value": 75, "unit": "fold"}]}, {"binder": "B7", "values": [{"measurement": "ICAM-1 (% ASFI of HA)", "setting": "[6]", "value": "27 % ASFI of HA"}]}, {"binder": "B8", "values": [{"measurement": "ICAM-1 (% ASFI of HA)", "setting": "[6]", "value": "17 % ASFI of HA"}]}, {"binder": "B9", "values": [{"measurement": "ICAM-1 (% ASFI of HA)", "setting": "[6]", "value": "123 % ASFI of HA"}]}, {"binder": "B10", "values": [{"measurement": "ICAM-1 (% ASFI of HA)", "setting": "[6]", "value": "14 % ASFI of HA"}]}, {"binder": "B11", "values": [{"measurement": "ICAM-1 (% ASFI of HA)", "setting": "[6]", "value": "30 % ASFI of HA"}]}, {"binder": "B12", "values": [{"measurement": "ICAM-1 (% ASFI of HA)", "setting": "[6]", "value": "110 % ASFI of HA"}]}]}
